Experimental data taken from US20200024330A1.

What was measured:
[1] = biological target: HIV-1 Env of isolate 92UG031 (pseudovirus) (HIV-1); assay: cell-based or functional assay
[2] = biological target: HIV-1 Env of isolate MGRM-D-004 (subtype D), on pseudovirus (HIV-1); assay: cell-based or functional assay
[3] = biological target: HIV-1 Env of isolate CMU02 (pseudovirus) (HIV-1); assay: cell-based or functional assay
[4] = biological target: HIV-1 Env of isolate MGRM-D-003 (subtype D), on pseudovirus (HIV-1); assay: cell-based or functional assay
[5] = biological target: HIV-1 Env of isolate MGRM-D-008 (subtype D), on pseudovirus (HIV-1); assay: cell-based or functional assay
[6] = biological target: HIV-1 Env of isolate 6535.3 (HIV-1); assay: cell-based or functional assay
[7] = biological target: HIV-1 Env of isolate VLGCA1 (pseudovirus) (HIV-1); assay: cell-based or functional assay
[8] = biological target: HIV-1 Env of isolate MGRM-D-005 (subtype D), on pseudovirus (HIV-1); assay: cell-based or functional assay
[9] = biological target: HIV-1 Env of isolate MGRM-D-001 (subtype D), on pseudovirus (HIV-1); assay: cell-based or functional assay
[10] = biological target: HIV-1 Env of isolate 92RW026 (HIV-1); assay: cell-based or functional assay
[11] = biological target: HIV-1 Env of isolate 92RW024 (HIV-1); assay: cell-based or functional assay
[12] = biological target: HIV-1 Env of isolate 92RW009 (HIV-1); assay: cell-based or functional assay
[13] = biological target: HIV-1 Env of isolate 93RW029 (HIV-1); assay: cell-based or functional assay
[14] = biological target: HIV-1 envelope glycoprotein (Env) of isolate MGRM-Chronic-B-023, on pseudovirus (HIV-1); assay: cell-based or functional assay
[15] = biological target: HIV-1 Env of isolate MGRM-F1-023 (clade F), on pseudovirus (HIV-1); assay: cell-based or functional assay
[16] = biological target: HIV-1 Env of isolate SF162 (subtype B) (HIV-1) (UniProt P19550); assay: cell-based or functional assay
[17] = biological target: HIV-1 92RW020 Env (pseudovirus) (HIV-1 92RW020); assay: cell-based or functional assay
[18] = biological target: Endo H treated JR-FL gp120 (HIV-1 (isolate JR-FL)); assay: ELISA on coated gp120; EC50 by nonlinear regression
[19] = biological target: JR-FL gp120 ΔV3 (HIV-1 (isolate JR-FL)); assay: as above
[20] = biological target: HIV-1 JR-CSF Env R315A (HIV-1 isolate JR-CSF) (UniProt P20871); assay: cell-based or functional assay
[21] = biological target: HIV-1 JR-CSF Env T394A (HIV-1 (isolate JR-CSF)) (UniProt P20871); assay: cell-based or functional assay
[22] = biological target: HIV-1 JR-CSF Env K305A (HIV-1 JR-CSF) (UniProt P20871); assay: cell-based or functional assay
[23] = biological target: HIV-1 JR-CSF Env V292A (HIV-1 JR-CSF) (UniProt P20871); assay: cell-based or functional assay
[24] = biological target: HIV-1 JR-CSF Env S387A (HIV-1 (isolate JR-CSF)) (UniProt P20871); assay: cell-based or functional assay
[25] = biological target: HIV-1 JR-CSF Env E321aA (HIV-1 isolate JR-CSF) (UniProt P20871); assay: cell-based or functional assay
[26] = biological target: HIV-1 JR-CSF Env R419A (HIV-1 (isolate JR-CSF)) (UniProt P20871); assay: cell-based or functional assay
[27] = biological target: HIV-1 Env of isolate APV6 (clade B) (HIV-1); assay: cell-based or functional assay
[28] = biological target: HIV-1 Env of isolate 92RW020 (clade A) (HIV-1); assay: cell-based or functional assay
[29] = biological target: HIV-1 Env of isolate MGRM-AG-005 (clade AG) (HIV-1); assay: cell-based or functional assay
[30] = biological target: HIV-1 APV6 Env (pseudovirus) (HIV-1); assay: cell-based or functional assay
[31] = biological target: HIV-1 92BR020 envelope protein (Env) on pseudotyped virus (HIV-1 isolate 92BR020); assay: cell-based or functional assay
[32] = biological target: HIV-1 Env of isolate Du172 (HIV-1); assay: cell-based or functional assay
[33] = biological target: MuLV envelope protein (control pseudovirus) (MuLV); assay: cell-based or functional assay
[34] = biological target: HIV-1 MGRM-AG-005 Env (pseudovirus) (HIV-1); assay: cell-based or functional assay
[35] = biological target: HIV-1 MGRM-C-028 Env (pseudovirus) (HIV-1); assay: cell-based or functional assay
[36] = biological target: HIV-1 JRCSF Env (clade B pseudovirus) (HIV-1) (UniProt P20871); assay: cell-based or functional assay
[37] = biological target: HIV-1 MGRM-C-027 Env (clade C pseudovirus) (HIV-1); assay: cell-based or functional assay
[38] = biological target: HIV-1 NL43 Env (clade B pseudovirus) (HIV-1); assay: cell-based or functional assay

Substance VRC01 (antibody) has an IC50 (µg/mL), pseudovirus neutralization [1] of 0.469 µg/mL, an IC50, pseudovirus neutralization [2] of 1.25 µg/mL and an IC50 (µg/mL), pseudovirus neutralization [3] of 0.515 µg/mL. For the same substance, the IC50, pseudovirus neutralization [4] was 2.06 µg/mL, the IC50, pseudovirus neutralization [5] was 0.854 µg/mL and the IC50 [6] was 1.75 µg/mL. For the same substance, the IC50 (µg/mL), pseudovirus neutralization [7] was 0.163 µg/mL, the IC50, pseudovirus neutralization [8] was over 50 µg/mL and the IC50, pseudovirus neutralization [9] was over 50 µg/mL.

With PGV04 (antibody) the IC50 [10] was 0.14 µg/mL, the IC50 [11] was 0.31 µg/mL and the IC50 [12] was 0.108 µg/mL. For the same substance, the IC50 [13] was 0.54 µg/mL, the IC50, pseudovirus neutralization [14] was 0.139 µg/mL and the IC50 (µg/mL), single-round pseudovirus neutralization [15] was 0.171 µg/mL. The IC50 (µg/mL), pseudovirus neutralization [16] was 0.0028 µg/mL.

In the case of 1496_C09 (PG9) (TCN-109) (antibody), the IC50 [10] is reported as 0.164 µg/mL, the IC50 [11] is reported as 0.258 µg/mL and the IC50 [12] is reported as 0.05 µg/mL. For the same substance, the IC50 (ug/ml), neutralization [17] was 0.1 µg/mL, the IC50 [13] was 0.69 µg/mL and the IC50, pseudovirus neutralization [14] was 0.027 µg/mL.

With PGT-121 (antibody) the EC50 [18] was over 10 µg/mL, the EC50 [19] was over 10 µg/mL and the Fold IC50 increase relative to wild-type [20] was 0.9 fold. The Fold IC50 increase relative to wild-type [21] was 0.2 fold, the Fold IC50 increase relative to wild-type [22] was 1.9 fold and the Fold IC50 increase relative to wild-type [23] was 2.7 fold. The Fold IC50 increase relative to wild-type [24] was 0.5 fold, the Fold IC50 increase relative to wild-type [25] was 0.3 fold and the Fold IC50 increase relative to wild-type [26] was 1.8 fold.

Substance 5147_N06 (PGT-130) (antibody) has a neutralization IC50 [27] of over 10 µg/mL, a neutralization IC80 [27] of over 10 µg/mL and a neutralization IC90 [27] of over 10 µg/mL. It also gave a neutralization IC95 [27] of over 10 µg/mL, a neutralization IC50 [28] of 0.014 µg/mL and a neutralization IC80 [28] of 0.508 µg/mL. The neutralization IC90 [28] was 3.68 µg/mL, the neutralization IC95 [28] was over 10 µg/mL and the neutralization IC50 [29] was 0.947 µg/mL. The neutralization IC80 [29] was over 10 µg/mL, the neutralization IC90 [29] was over 10 µg/mL and the neutralization IC95 [29] was over 10 µg/mL.

In the case of 4838_L06 (PGT-121) (antibody), the neutralization IC80 [30] is reported as 0.145 µg/mL and the neutralization IC95 [30] is reported as 0.569 µg/mL.

For PGT-122 (antibody), the Fold IC50 increase relative to wild-type [20] was 0.5 fold, the Fold IC50 increase relative to wild-type [21] was 0.6 fold and the Fold IC50 increase relative to wild-type [23] was 1.3 fold. The Fold IC50 increase relative to wild-type [24] was 0.9 fold, the Fold IC50 increase relative to wild-type [25] was 0.4 fold and the Fold IC50 increase relative to wild-type [26] was 0.8 fold.

1495_C14 (PGC14) (antibody) showed an IC50, pseudovirus neutralization, 1 hour Virus/Ab Incubation [31] of 1.17 µg/mL and an IC50, pseudovirus neutralization, 18 hour Virus/Ab Incubation [31] of 0.244 µg/mL.

With 1443_C16 (PG16) (TCN-116) (antibody) the IC50, pseudovirus neutralization, 1 hour Virus/Ab Incubation [31] was over 50 µg/mL, the IC50, pseudovirus neutralization, 18 hour Virus/Ab Incubation [31] was over 50 µg/mL and the IC50, pseudovirus neutralization (TZM-bl) [32] was under 0.01 µg/mL. It also gave an IC50, pseudovirus neutralization (TZM-bl), control virus [33] of over 25 µg/mL and an IC50 (ug/ml), neutralization [17] of 0.09 µg/mL.

Substance 5141_B17 (PGT-126) (antibody) has an IC50 [30] of 0.0249 µg/mL, an IC80 [30] of 0.0681 µg/mL and an IC90 [30] of 0.123 µg/mL. The IC95 [30] was 0.213 µg/mL, the IC50 [34] was 1.35 µg/mL and the IC80 [34] was over 10 µg/mL. It also gave an IC90 [34] of over 10 µg/mL, an IC95 [34] of over 10 µg/mL and an IC50 [35] of 0.283 µg/mL. For the same substance, the IC80 [35] was 2.62 µg/mL, the IC90 [35] was over 10 µg/mL and the IC95 [35] was over 10 µg/mL.

Work on 4877_D15 (PGT-122) (antibody) yielded a Neutralization by PGT-122, IC50 [36] of 0.0727 µg/mL, a Neutralization by PGT-122, IC80 [36] of 0.245 µg/mL and a Neutralization by PGT-122, IC90 [36] of 0.494 µg/mL. The Neutralization by PGT-122, IC95 [36] was 0.926 µg/mL, the Neutralization by PGT-122, IC50 [37] was 0.0388 µg/mL and the Neutralization by PGT-122, IC80 [37] was 0.499 µg/mL. For the same substance, the Neutralization by PGT-122, IC90 [37] was over 10 µg/mL, the Neutralization by PGT-122, IC95 [37] was over 10 µg/mL and the Neutralization by PGT-122, IC50 [38] was over 10 µg/mL. It also gave a Neutralization by PGT-122, IC80 [38] of over 10 µg/mL, a Neutralization by PGT-122, IC90 [38] of over 10 µg/mL and a Neutralization by PGT-122, IC95 [38] of over 10 µg/mL.
